Legend:
Assay in all cases: SEC
[1] = target: bimodular construct 25 (MAT-ACP didomain fused to full-length mFAS) (Mus musculus) (UniProt P19096)
[2] = target: mFAS alpha-module, construct 17 (KS-MAT-ACP, mFAS sequences only) (Mus musculus)
[3] = target: mFAS alpha-module, construct 22 (KS-MAT-ACP-TE, mFAS sequences only) (Mus musculus)
[4] = target: mFAS delta-module, construct 6 (2-2195) (Mus musculus) (UniProt P19096)
[5] = target: murine fatty acid synthase (mFAS) (Mus musculus) (UniProt P19096); conditions: remark: other sources report otherwise

Question: For “bimodular construct 25 (MAT-ACP didomain fused to full-length mFAS) (from UniProt P19096 1-2504)”, which stoichiometry N [1] is on record?
Answer: 2

Question: Which stoichiometry N [2] does the source give for “mFAS alpha-module, construct 17 (KS-MAT-ACP, mFAS sequences only) (domain or fragment)” here?
Answer: 2

Question: How did the stoichiometry N [3] turn out when “mFAS alpha-module, construct 22 (KS-MAT-ACP-TE, mFAS sequences only) (domain or fragment)” was run?
Answer: 2

Question: For “mFAS delta-module, construct 6 (2-2195), P19096 2-2195”, which stoichiometry N [4] is on record?
Answer: 2

Question: For “murine fatty acid synthase (mFAS), P19096 1-2504”, which stoichiometry N [5] is on record?
Answer: 2

— publication doi:10.1101/379156
